Test results published in US20260242419A1, “A CYCLIC PEPTIDE FOR TRAPPING INTERLEUKIN-1 BETA” (Merck Sharp & Dohme LLC, priority 2023, published 2026).
Starred links: 1 amine or outer side, 2 acyl side, 3 side chain; linkers in the order of their positions; H or OH if unused. Non-standard residues stand in square brackets, D forms with d. Residues, ends and D or L forms follow the SMILES beside them. 3Pal4Ph4CO2H = 4-[5-[(2S)-2-amino-2-carboxy-ethyl]-2-pyridyl]benzoic acid, O=C([C@H](Cc1ccc(-c2ccc(C(=O)[*:3])cc2)nc1)N[*:1])[*:2]; TyrEtNAc = (2S)-3-[4-(2-acetamidoethoxy)phenyl]-2-amino-propanoic acid, CC(=O)NCCOc1ccc(C[C@H](N[*:1])C(=O)[*:2])cc1; dProc3Bn = (2R,3S)-3-benzylpyrrolidine-2-carboxylic acid, O=C([C@H]1[C@@H](Cc2ccccc2)CCN1[*:1])[*:2]; Trp(βS-Me,4-F) = C[C@@H](c1c[nH]c2cccc(F)c12)[C@H](N)C(=O)O; Bip(4'-COOH) = N[C@@H](Cc1ccc(-c2ccc(C(=O)O)cc2)cc1)C(=O)O; Ala(1-bicyclo(1.1.1)pentyl) = N[C@@H](CC12CC(C1)C2)C(=O)O; dPro(4R-Bzl(4-F)) = O=C(O)[C@H]1C[C@@H](Cc2ccc(F)cc2)CN1; dPro(3S-(4-F-Bn)) = O=C(O)[C@@H]1NCC[C@@H]1Cc1ccc(F)cc1; X7 = Nc1cc(-c2ccc(C[C@H](N[*:1])C(=O)[*:2])cc2)ccn1; Ala(pyrimidin-5-yl) = N[C@@H](Cc1cncnc1)C(=O)O; Phe(4-COOH) = N[C@@H](Cc1ccc(C(=O)O)cc1)C(=O)O; Ala(2-pyrazinyl) = N[C@@H](Cc1cnccn1)C(=O)O; Pro(cis-4-F) = O=C(O)[C@@H]1C[C@H](F)CN1; d(αMeD) = C[C@@](N)(CC(=O)O)C(=O)O; 4Pal = N[C@@H](Cc1ccncc1)C(=O)O; Dab = NCC[C@H](N)C(=O)O; Dap = NC[C@H](N)C(=O)O; Aib = CC(C)(N)C(=O)O

B1: SEQ ID NO: 100 (peptide)
peptide: cyclo([3Pal4Ph4CO2H][Ala(1-bicyclo(1.1.1)pentyl)][Phe(4-COOH)]G[Pro(cis-4-F)][Trp(βS-Me,4-F)][Aib]EW[Aib][Dap]Q[Dab]G[dPro(4R-Bzl(4-F))])
SMILES: C[C@@H](c1c[nH]c2cccc(F)c12)[C@@H]1NC(=O)[C@@H]2C[C@H](F)CN2C(=O)CNC(=O)[C@H](Cc2ccc(C(=O)O)cc2)NC(=O)[C@H](CC23CC(C2)C3)NC(=O)[C@H](Cc2ccc(-c3ccc(C(=O)O)cc3)nc2)NC(=O)[C@H]2C[C@@H](Cc3ccc(F)cc3)CN2C(=O)CNC(=O)[C@H](CCN)NC(=O)[C@H](CCC(N)=O)NC(=O)[C@H](CN)NC(=O)C(C)(C)NC(=O)[C@H](Cc2c[nH]c3ccccc23)NC(=O)[C@H](CCC(=O)O)NC(=O)C(C)(C)NC1=O
B2: SEQ ID NO: 1 (peptide)
peptide: cyclo([Bip(4'-COOH)][4Pal][Phe(4-COOH)]G[Pro(cis-4-F)][Trp(βS-Me,4-F)][Aib]EW[Aib]FQSG[dProc3Bn])
SMILES: C[C@@H](c1c[nH]c2cccc(F)c12)[C@@H]1NC(=O)[C@@H]2C[C@H](F)CN2C(=O)CNC(=O)[C@H](Cc2ccc(C(=O)O)cc2)NC(=O)[C@H](Cc2ccncc2)NC(=O)[C@H](Cc2ccc(-c3ccc(C(=O)O)cc3)cc2)NC(=O)[C@H]2[C@@H](Cc3ccccc3)CCN2C(=O)CNC(=O)[C@H](CO)NC(=O)[C@H](CCC(N)=O)NC(=O)[C@H](Cc2ccccc2)NC(=O)C(C)(C)NC(=O)[C@H](Cc2c[nH]c3ccccc23)NC(=O)[C@H](CCC(=O)O)NC(=O)C(C)(C)NC1=O
B3: SEQ ID NO: 10 (peptide)
peptide: cyclo([TyrEtNAc][4Pal][Phe(4-COOH)]G[Pro(cis-4-F)][Trp(βS-Me,4-F)][Aib]EW[Aib][Ala(pyrimidin-5-yl)]Q[Dab]G[dPro(4R-Bzl(4-F))])
SMILES: CC(=O)NCCOc1ccc(C[C@@H]2NC(=O)[C@H]3C[C@@H](Cc4ccc(F)cc4)CN3C(=O)CNC(=O)[C@H](CCN)NC(=O)[C@H](CCC(N)=O)NC(=O)[C@H](Cc3cncnc3)NC(=O)C(C)(C)NC(=O)[C@H](Cc3c[nH]c4ccccc34)NC(=O)[C@H](CCC(=O)O)NC(=O)C(C)(C)NC(=O)[C@H]([C@@H](C)c3c[nH]c4cccc(F)c34)NC(=O)[C@@H]3C[C@H](F)CN3C(=O)CNC(=O)[C@H](Cc3ccc(C(=O)O)cc3)NC(=O)[C@H](Cc3ccncc3)NC2=O)cc1

How the values were obtained:
IL-1β = target: T1, IL-1β (Homo sapiens, UniProt P01584); experiment: IL-6 assay in MRC5 cells: inhibition of IL-1β induced IL-6 secretion (AlphaLISA); type: cell-based; conditions: inhibition of IL-1β induced IL-6 secretion in MRC5 cells; read-out: MRC5 IC50
T1 construct: purchased BioLegend 579404
T1 sequence (P01584 117-269): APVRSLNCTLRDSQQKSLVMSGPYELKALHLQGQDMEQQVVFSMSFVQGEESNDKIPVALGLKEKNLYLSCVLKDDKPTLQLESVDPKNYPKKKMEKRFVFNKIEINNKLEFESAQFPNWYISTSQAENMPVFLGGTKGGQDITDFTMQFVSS
How it was run: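 Compound was pre-incubated 1 h at ambient temperature with recombinant human IL-1β at 2λ EC80 before adding human lung fibroblast MRC5 cells (3000/well) in EMEM with 0.025% BSA. After overnight culture at 37 °C, 5% CO2, secreted IL-6 in conditioned medium was measured by AlphaLISA; IC50 from 4-parameter logistic fits.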

[1] = target: Recombinant human IL-1β (BioLegend 579404) (human, UniProt P01584 117-269); experiment: cell-based or functional assay

| Molecule | IC50 (IL-1β) [nM] | MRC5 IC50 [1] [nM] |
| --- | --- | --- |
| C[C@@H](c1c[nH]c2cccc(F)c12)[C@@H]1NC(=O)[C@@H]2C[C@H](F)CN2C(=O)CNC(=O)[C@H](Cc2ccc(C(=O)O)cc2)NC(=O)[C@H](Cc2ccncc2)NC(=O)[C@H](Cc2ccc(-c3ccnc(N)c3)cc2)NC(=O)[C@H]2[C@@H](Cc3ccc(F)cc3)CCN2C(=O)CNC(=O)[C@H](CCN)NC(=O)[C@H](CCC(N)=O)NC(=O)[C@H](Cc2cncnc2)NC(=O)[C@@](C)(CC(=O)O)NC(=O)[C@H](Cc2c[nH]c3ccccc23)NC(=O)[C@H](CO)NC(=O)C(C)(C)NC1=O [Example 385] (cyclo([X7][4Pal][Phe(4-COOH)]G[Pro(cis-4-F)][Trp(βS-Me,4-F)][Aib]SW[d(αMeD)][Ala(pyrimidin-5-yl)]Q[Dab]G[dPro(3S-(4-F-Bn))])) | 0.023 | – |
| B1 | – | 0.074 |
| B2 | – | 0.093 |
| B3 | – | 0.027 |
| cyclo([Bip(4'-COOH)][4Pal][Phe(4-COOH)]G[Pro(cis-4-F)][Trp(βS-Me,4-F)][Aib]EW[Aib][Ala(2-pyrazinyl)]Q[Dab]G[dPro(4R-Bzl(4-F))]) [SEQ ID NO: 101] | – | 0.021 |
